Source: patent publication US20250340655A1, “EPHA2-TARGETING ANTIBODIES AND THEIR APPLICATIONS IN CANCER TREATMENT” (TAIPEI MEDICAL UNIVERSITY, priority 2022, published 2025)

Experiments:
[1] = tested on: other Eph family proteins (EphA1-A8); test: Flow cytometry binding specificity on 293T cells overexpressing EphA molecules: other family proteins; details: cells overexpressing EphA1-A8 (FIG. 6A)
Description: (§1) To detect the binding specificity of scFv, 293T cells were transformed with EphA1-A8 plasmids individually for overexpression of different EphA molecules. The cell line was freshly prepared and washed with FACS buffer (2% FBS in PBS). The cells were seeded at 1×10^5 cells/well into a 96-well Ubottom plate and incubated with scFv for 1 h at 4° C. After the plate was washed with FACS buffer, the anti-hemagglutinin (HA) antibody was added for scFv binding detection (scFv was fused with a HA tag) and subsequently developed using an FITC-conjugated secondary antibody. Finally, the cell binding signal was analyzed using a FACS can flow cytometer.

[2] = tested on: BxPc-3 and Mia PaCa-2 cells; test: Molecule signaling by Western blotting; assay type: cell-based, human
Description: […] The cells were collected and lysed using lysis buffer [50 mM Tris-HCl (pH 7.5), 50 mM NaCl, 5 mM ethylenediaminetetraacetic acid, and 1% Triton X-100], and a mixture of proteinase inhibitors (Roche Applied Science) was added. The protein concentration of the cell lysate was measured through the Coomassie Plus (Bradford) Protein Assay (Thermo Fisher Scientific). Samples were run on reducing SDS-PAGE for Western blotting analysis and were detected using antibodies against p-EphA2, EphA2, p-AKT, AKT, p-ERK, ERK, p-FAK, FAK, pSTAT3, STAT3 (Cell Signaling Technology), and β-actin (GeneTex).

[3] = tested on: HuCCT1, ssp-25, RBE, TFK; test: MTS growth inhibition, cholagiocarcinoma cells; assay type: cell-based; parameters: dose or concentration left out as unconfirmed; details: four cell lines HuCCT1, ssp-25, RBE, Day 5
Description: The growth inhibitory effect of hSD5 scFv on the four strains of cholagiocarcinoma cells was tested under different concentrations. At indicated concentrations, hSD5 scFv interacted with the cancer cells for 5 days, and the effects on the growth of cancer cells were observed by MTS assay. (FIG. 17C)

[4] = target: EphA2 (Homo sapiens, UniProt P29317); test: Flow cytometry binding specificity on 293T cells overexpressing EphA molecules: EphA2; parameters: expressed in transfected cells; host or cells: 293T; details: flow cytometry (FIG. 6A)
Description: as §1

Sequence of EphA2 (P29317 24-976): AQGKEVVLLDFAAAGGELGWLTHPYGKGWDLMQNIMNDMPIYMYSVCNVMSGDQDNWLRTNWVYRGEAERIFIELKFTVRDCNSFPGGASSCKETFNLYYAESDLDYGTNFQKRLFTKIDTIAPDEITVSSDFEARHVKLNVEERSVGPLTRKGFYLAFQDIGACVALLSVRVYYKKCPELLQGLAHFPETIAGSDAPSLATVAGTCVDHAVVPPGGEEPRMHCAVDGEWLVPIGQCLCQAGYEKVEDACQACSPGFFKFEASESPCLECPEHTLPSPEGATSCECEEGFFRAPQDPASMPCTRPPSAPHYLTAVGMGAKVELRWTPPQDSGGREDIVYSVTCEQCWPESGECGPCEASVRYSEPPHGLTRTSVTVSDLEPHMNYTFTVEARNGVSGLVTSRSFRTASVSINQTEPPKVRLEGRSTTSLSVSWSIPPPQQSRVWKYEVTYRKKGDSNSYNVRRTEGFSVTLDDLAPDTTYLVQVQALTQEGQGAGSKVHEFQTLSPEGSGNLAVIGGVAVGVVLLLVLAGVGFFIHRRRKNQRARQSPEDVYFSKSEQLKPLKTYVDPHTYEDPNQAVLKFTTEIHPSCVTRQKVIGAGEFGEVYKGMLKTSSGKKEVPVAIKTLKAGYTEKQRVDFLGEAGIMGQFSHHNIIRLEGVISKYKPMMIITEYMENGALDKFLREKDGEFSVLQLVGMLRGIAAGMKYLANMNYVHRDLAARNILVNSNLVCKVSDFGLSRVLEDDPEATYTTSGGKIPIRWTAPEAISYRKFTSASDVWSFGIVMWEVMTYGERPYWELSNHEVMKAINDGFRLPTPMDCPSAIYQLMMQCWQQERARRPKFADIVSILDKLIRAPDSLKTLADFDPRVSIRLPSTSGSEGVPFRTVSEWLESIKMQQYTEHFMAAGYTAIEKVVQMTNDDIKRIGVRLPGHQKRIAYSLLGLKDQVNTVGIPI

B1: scFv hSD5: humanized anti-EphA2 scFv, SEQ ID NO: 12 (light chain SEQ ID NO: 8, heavy chain SEQ ID NO: 10) (protein)
scFv: LTQPPSVSVSPGQTVRITCSGSSGSYGWYQQKSPGQAPVTLIYDNDKRPSGIPERFSGSSSGSTSTLTISGVQAEDEADYYCGSADSSTYVGMFGGGTKLTVLGQSSRSSQVQLVESGGGLVQPGGSLRLSCAASGFTFSDYGMGWVRQAPGKGLEWVAGISAAGSFTPYGAAVKGRFTISRDNSKNTVYLQMNSLRAEDTAVYYCARIPSGYRAGEIYTWGQGTLVTVSS
[1]
  cross-binding to other Eph family proteins: does not exhibit cross-binding reactions
[2]; 6 h after administration of scFv (FIG. 6C)
  LAMP1 and LAMP2 levels: upregulated levels
[2]; 6 h after administration of scFv, dose-dependent (FIG. 6C)
  EphA2 degradation: degraded EphA2 molecules
[2]; 24 hours treatment (FIG. 6D)
  EphA2 level: almost completely degraded
  amount of pEphA2: decreased
  pSTAT3 and pFAK signals: dose-dependent decrease
[3]
  growth inhibition: 40%-70%
[4]
  binding to cells overexpressing EphA2: specifically binds to EphA2 molecules
